Measurements as given in patent publication US20050119456A1 (NEW YORK UNIVERSITY, published 2005).

Target: T1, GST-SMRT (Hu SMRT(1-900) fused to GST, from pGEX-6p-1) (human, UniProt Q9Y618 1-900)
T1 construct: range 1-900; Expressed in bacteria with IPTG and adsorbed onto glutathione sepharose 4B; also called GST-SMRT agarose; immobilized SMRT; not shown: glutathione S-transferase of the pGEX-6p-1 bacterial expression vector
Assay: GST pull-down of 35S-labeled in vitro translated C21 fragment
Text: FIGS. 15A and 15B show GST-pull-down of in vitro synthesized C21 by SMRT (1-900). Hu SMRT(1-900) cDNA was amplified by PCR and cloned in-frame into pGEX-6p-1 (GST fusion expression vector for bacterial expression). Expression of the GST fusion protein (FIG. 15A) or control (FIG. 15B) was induced with IPTG and the product adsorbed onto glutathione sepharose 4B. hC21 (full-length ORF or fragments lacking the C-terminal half(δ C), the F-box (δ F), the N terminal 40 amino acid (δ N) or a construct lacking both the N-terminus and the F-box (δN+F) was cloned in-frame into pCDNA3 vector with a Flag tag at the N-terminus. The plasmid, linearized with EcoRI, was purified and used as a template to label the product. For the pull-down experiments, 5 ng of ³⁵S-labeled hC21 protein(s) and 20 ul of GST agarose or GST-SMRT agarose were mixed. All four C21 constructs labeled with equal efficiency and the same quantity of labeled protein were used in each experiment. The denatured proteins were then electrophoresed through a 10% SDS PAGE gel.
Labeled C21 prepared by in vitro translation using 35S methionine can be “pulled-down” by immobilized SMRT. […] A fragment (21[δC]) consisting only of the first 230 amino acids (i.e., lacking all of the WD40 repeats and the carboxyl terminus) was as efficient as the full-length protein in reacting with SMRT.

T1 sequence (Q9Y618 1-900): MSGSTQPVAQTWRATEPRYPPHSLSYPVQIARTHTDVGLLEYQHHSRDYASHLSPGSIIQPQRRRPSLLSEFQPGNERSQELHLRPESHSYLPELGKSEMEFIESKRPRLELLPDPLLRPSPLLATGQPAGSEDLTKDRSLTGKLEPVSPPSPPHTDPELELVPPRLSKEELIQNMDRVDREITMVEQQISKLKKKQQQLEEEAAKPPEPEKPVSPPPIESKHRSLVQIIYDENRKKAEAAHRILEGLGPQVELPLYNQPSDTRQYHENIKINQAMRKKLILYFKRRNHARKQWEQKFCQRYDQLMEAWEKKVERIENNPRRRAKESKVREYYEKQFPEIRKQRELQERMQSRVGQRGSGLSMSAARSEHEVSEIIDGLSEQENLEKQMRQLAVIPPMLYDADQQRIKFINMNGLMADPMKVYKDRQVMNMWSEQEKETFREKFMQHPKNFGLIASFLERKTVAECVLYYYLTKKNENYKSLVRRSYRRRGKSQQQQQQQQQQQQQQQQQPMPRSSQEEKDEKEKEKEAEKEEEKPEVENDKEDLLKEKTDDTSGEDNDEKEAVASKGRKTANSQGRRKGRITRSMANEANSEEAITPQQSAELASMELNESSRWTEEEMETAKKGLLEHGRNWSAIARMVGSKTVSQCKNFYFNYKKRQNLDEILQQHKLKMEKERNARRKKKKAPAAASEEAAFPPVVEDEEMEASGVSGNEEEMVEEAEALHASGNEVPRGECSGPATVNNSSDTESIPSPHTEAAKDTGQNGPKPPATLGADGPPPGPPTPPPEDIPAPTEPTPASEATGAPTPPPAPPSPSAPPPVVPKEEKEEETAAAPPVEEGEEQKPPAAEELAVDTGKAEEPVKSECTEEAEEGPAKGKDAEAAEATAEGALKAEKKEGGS

- binding result: no binding
B1: 21[5N] (other)
chain: GALVPPAALISIIQKGLQYVEAEVSINEDGTLFDGRPIESLSLIDAVMPDVVQTRQQAYRDKLAQQQAAAAAAAAAAASQQGSAKNGENTANGEENGAHTIANNHTDMMEVDGDVEIPPNKAVVLRGHESEVFICAWNPVSDLLASGSGDSTARIWNLSENSTSGSTQLVLRHCIREGGQDVPSNKDVTSLDWNSEGTLLATGSYDGFARIWTKDGNLASTLGQHKGPIFALKWNKKGNFILSAGVDKTTIIWDAHTGEAKQQFPFHSAPALDVDWQSNNTFASCSTDMCIHVCKLGQDRPIKTFQGHTNEVNAIKWDPTGNLLASCSDDMTLKIWSMKQDNCVHDLQQHNKEIYTIKWSPTGPGTNNPNANLMLASASFDSTVRLWDVDRGICIHTLTKHQEPVYSVAFSPDGRYLASGSFDKCVHIWNTQTGALVHSYRGTGGIFEVCWNAAGDKVGASASDGSVCVLDLRK
modifications: 35S-methionine label
notes: also called δ N; hC21 fragment lacking the N terminal 40 amino acid; not shown: Flag tag at the N-terminus
